Test system: peptide library, one residue held at a place counted from the S/T acceptor
Assay: relative phosphorylation of the sub-library (ratio to the mean residue at this position); higher = residue favoured
Conditions: human
Procedure, shortened: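 Human or orthologue kinase constructs, purified and recombinant, were incubated under kinase-specific conditions in 384-well plates with biotinylated degenerate peptide sub-libraries. Each sub-library fixed one residue at one position around a central Ser/Thr. Incubations lasted 90 min with peptides at 50 μM and 50 μM ATP spiked with γ-32P-ATP, after which spots on streptavidin membranes were phosphorimaged and quantified by densitometry. Relative sub-library phosphorylation is a ratio to the mean residue at that position.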

Sequence of PDK4, construct: Full length (Q16654 whole entry, looked up): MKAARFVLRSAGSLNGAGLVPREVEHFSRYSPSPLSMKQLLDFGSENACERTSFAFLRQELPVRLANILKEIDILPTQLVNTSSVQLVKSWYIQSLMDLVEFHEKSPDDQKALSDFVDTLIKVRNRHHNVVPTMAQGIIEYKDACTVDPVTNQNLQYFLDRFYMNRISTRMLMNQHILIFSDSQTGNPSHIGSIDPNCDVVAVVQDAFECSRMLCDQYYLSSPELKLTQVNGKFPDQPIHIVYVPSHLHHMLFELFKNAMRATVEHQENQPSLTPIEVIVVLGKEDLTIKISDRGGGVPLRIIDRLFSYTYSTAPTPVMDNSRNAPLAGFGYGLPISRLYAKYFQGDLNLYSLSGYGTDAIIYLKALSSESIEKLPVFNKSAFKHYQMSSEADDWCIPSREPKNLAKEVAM

PDK4, construct: Full length (from UniProt Q16654)
relative phosphorylation
Conditions | at +1 | at +2 | at +3 | at +4 | at -1 | at -2 | at -3 | at -4 | at -5
A fixed | 0.674 | 0.87 | 1.15 | 0.987 | 1.05 | 0.953 | 0.939 | 0.873 | 1.06
D fixed | 0.79 | 1.21 | 1.1 | 1.16 | 1.09 | 0.775 | 0.841 | 0.861 | 0.995
E fixed | 0.679 | 1.64 | 1.06 | 0.972 | 0.718 | 0.715 | 0.788 | 0.818 | 0.876
F fixed | 1.34 | 0.962 | 1.52 | 1.07 | 1.21 | 1.03 | 1.65 | 1.53 | 1.25
G fixed | 0.705 | 1.22 | 1.05 | 1.06 | 1.29 | 1.22 | 1.02 | 0.992 | 1.03
H fixed | 0.838 | 0.883 | 1.09 | 0.947 | 1.02 | 1.23 | 1.11 | 0.983 | 0.996
I fixed | 1.2 | 0.742 | 1.03 | 0.802 | 0.778 | 0.776 | 0.912 | 0.897 | 0.99
K fixed | 0.692 | 0.745 | 0.622 | 0.834 | 0.847 | 0.889 | 0.827 | 0.86 | 0.88
L fixed | 1.74 | 0.951 | 0.993 | 0.98 | 0.947 | 0.97 | 0.961 | 0.905 | 1.05
M fixed | 1.48 | 1.06 | 1.23 | 1.02 | 1.15 | 1.08 | 1.07 | 1.04 | 1.29
N fixed | 0.732 | 1.05 | 0.898 | 1.36 | 1.1 | 0.883 | 0.906 | 0.964 | 1.15
P fixed | 0.825 | 0.823 | 0.93 | 1.01 | 0.874 | 1.09 | 0.973 | 0.878 | 0.723
Q fixed | 0.862 | 1.09 | 0.818 | 0.959 | 0.89 | 0.964 | 0.912 | 0.95 | 0.791
R fixed | 0.853 | 0.939 | 0.729 | 0.968 | 1.03 | 1.02 | 0.913 | 0.962 | 0.869
V fixed | 0.972 | 0.791 | 0.771 | 0.828 | 0.783 | 0.864 | 0.831 | 0.827 | 0.825
W fixed | 1.61 | 1.03 | 1.01 | 1.04 | 1.22 | 1.55 | 1.35 | 1.66 | 1.21
Y fixed | 1.34 | 0.962 | 1.52 | 1.07 | 1.21 | 1.03 | 1.65 | 1.53 | 1.25
pThr fixed | 0.849 | 1.01 | 1.27 | 1.36 | 0.587 | 0.794 | 0.865 | 0.973 | 1.09
pTyr fixed | 0.895 | 1.19 | 0.99 | 1 | 0.7 | 0.943 | 1.31 | 1.83 | 1.07

RPS6KA4, construct: Full length (from UniProt O75676)
relative phosphorylation
Conditions | at +1 | at +2 | at +3 | at +4 | at -1 | at -2 | at -3 | at -4 | at -5
A fixed | 0.665 | 0.804 | 0.781 | 0.843 | 0.745 | 0.911 | 0.769 | 1.08 | 1.06
D fixed | 0.621 | 1.61 | 1.12 | 1.43 | 0.996 | 0.411 | 0.319 | 0.715 | 0.699
E fixed | 0.77 | 1.07 | 1.12 | 1.33 | 0.567 | 0.413 | 0.329 | 0.853 | 0.661
F fixed | 1.3 | 0.921 | 1.08 | 0.864 | 0.749 | 0.749 | 0.472 | 0.868 | 1.01
G fixed | 0.547 | 0.65 | 1.03 | 1.1 | 1.11 | 0.775 | 0.465 | 1.15 | 1.06
H fixed | 1.21 | 1.7 | 1.3 | 1.35 | 1.04 | 0.924 | 0.817 | 1.17 | 1.2
I fixed | 1.26 | 0.85 | 0.811 | 0.767 | 0.44 | 0.354 | 0.258 | 0.665 | 0.858
K fixed | 0.634 | 0.72 | 0.71 | 0.934 | 1.41 | 1.2 | 0.915 | 1.32 | 1.25
L fixed | 1 | 0.698 | 0.998 | 0.782 | 0.791 | 0.518 | 0.285 | 0.679 | 1
M fixed | 1.27 | 0.909 | 1.04 | 0.867 | 1.04 | 0.629 | 0.373 | 0.84 | 0.857
N fixed | 0.937 | 1.44 | 0.935 | 1.23 | 1.57 | 0.861 | 0.473 | 1.01 | 0.871
P fixed | 0.345 | 0.5 | 0.942 | 1.09 | 1.3 | 0.429 | 0.64 | 1.01 | 0.887
Q fixed | 1.1 | 0.873 | 0.949 | 1.25 | 1.19 | 0.885 | 0.642 | 1.09 | 0.831
R fixed | 0.771 | 0.869 | 0.677 | 0.74 | 1.5 | 6.18 | 8.7 | 1.81 | 1.96
V fixed | 1.24 | 0.807 | 0.726 | 0.639 | 0.51 | 0.354 | 0.247 | 0.583 | 0.773
W fixed | 1.89 | 1.39 | 1.62 | 1.07 | 0.898 | 0.748 | 0.738 | 1.13 | 1.19
Y fixed | 1.44 | 1.18 | 1.17 | 0.72 | 1.14 | 0.66 | 0.555 | 1.04 | 0.832
pThr fixed | 1.11 | 1.18 | 1.15 | 1.83 | 0.415 | 0.419 | 0.515 | 0.698 | 0.644
pTyr fixed | 1.57 | 1.17 | 1.47 | 1.39 | 1.27 | 0.502 | 0.491 | 0.81 | 0.804

Source: the supplement of paper PMC9876800
